Numbering of substitutions follows the chain as printed. Names may count otherwise.

Experiment [1] has as its target T1, Human PD-1 on CHO-S cells (human, UniProt Q15116 25-288).
T1 construct: whole, on cells; also called CHO-S.hPro1.C6; WBP305.CHO-S.hPro1.C6
As to the kind of experiment: FACS on CHO-S.hPro1.C6 cells. As to the method: The cells CHO-S.hPro1.C6 (2×10⁵ cells/well) were incubated with various concentrations of anti-PD-1 antibodies (4-fold serially diluted from 133.3 nM to 0.008 nM) at 4° C. for 1 hour. After washing with 1×PBS/1% BSA, the secondary antibody PE-labeled goat anti-human IgG was applied and incubated with cells at 4° C. for 1 hour. Anti-human PD-1 antibodies BMK1 and BMK3 were used as positive control. Human IgG4 isotype antibody was used as negative control. The cells were then washed and resuspended in 1×PBS/1% BSA. MFI of the cells was measured by a flow cytometer (BD) and analyzed by FlowJo (version 7.6.1).

Another experiment deals with T2, Mouse PD-1 on 293F cells (mouse, UniProt Q02242 25-288).
T2 construct: whole, on cells; also called 293F.mPro1.B4; WBP305.293F.mPro1.B4
T2 sequence (looked up): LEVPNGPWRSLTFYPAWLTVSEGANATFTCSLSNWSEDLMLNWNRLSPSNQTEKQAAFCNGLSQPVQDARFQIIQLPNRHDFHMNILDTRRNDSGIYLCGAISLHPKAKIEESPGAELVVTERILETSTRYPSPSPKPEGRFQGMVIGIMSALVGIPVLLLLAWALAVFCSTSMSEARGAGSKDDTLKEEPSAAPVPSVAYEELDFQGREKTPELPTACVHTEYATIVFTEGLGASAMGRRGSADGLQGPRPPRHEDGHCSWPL
The experiment in a line: FACS competition on 293F.mPro1.B4 cells; competitor mProL1.ECD.mFc 5 µg/mL. The procedure:
The mouse PD-1 transfected 293F.mPro1.B4 cells were transferred into 96-well U-bottom plates at a density of 2×10⁵ cells/well. Various concentrations of anti-PD-1 antibodies (3-fold serially diluted from 1334 nM to 0.07 nM) and constant concentration of mouse Fc tagged mouse PD-L1 ECD protein (mProL1.ECD.mFc) (5 μg/mL) were pre-mixed and incubated with cells at 4° C. for 1 hour. After washing with 1×PBS/1% BSA, the secondary antibody PE-labeled goat anti-mouse IgG was applied and incubated with cells at 4° C. for 1 hour. The cells were then washed and resuspended in 1×PBS/1% BSA. MFI of the cells was measured by a flow cytometer and analyzed by FlowJo (version 7.6.1).

Experiment [2] addresses T1, Human PD-1 on CHO-S cells. As to the kind of experiment: FACS competition on CHO-S.hPro1.C6 cells; competitor hProL1.ECD.mFc 5 µg/mL. As to the method:
The human PD-1 transfected CHO-S.hPro1.C6 cells were transferred into 96-well U-bottom plates at a density of 2×10⁵ cells/well. Various concentrations of antibodies (4-fold serially diluted from 133.3 nM to 0.008 nM) and constant concentration of mouse Fc tagged PD-L1 ECD protein (hProL1.ECD.mFc) (5 μg/mL) were pre-mixed and incubated with cells at 4° C. for 1 hour. After washing with 1×PBS/1% BSA, the secondary antibody PE-labeled goat anti-mouse IgG was applied and incubated with cells at 4° C. for 1 hour. The cells were then washed and resuspended in 1×PBS/1% BSA. MFI of the cells was measured by a flow cytometer and analyzed by FlowJo (version 7.6.1).

Experiment [3] addresses T3, Human CD28 extracellular domain, mFc tag (human, UniProt P10747 19-152).
T3 construct: extracellular domain; also called hCD28.ECD.mFc; not shown: mouse Fc tag at C-terminus
As to the kind of experiment: ELISA, coated antigen 1 ug/mL, antibody 100 nM, HRP goat anti-human IgG. The procedure:
(§1) Plates were pre-coated with 1 μg/mL, 100 μL per well of hPD-1.ECD.mFc, hCD28.ECD.mFc, hCTLA-4.ECD.His, hICOS.ECD.mFc or hBTLA.ECD.His at 4° C. overnight. After 1-hour blocking using 200 μL of 1×PBS/2% BSA, testing antibodies were added to the plates at a concentration of 100 nM. The plates were incubated at ambient temperature for 1 hour. The binding of the antibodies to the immobilized proteins was detected by HRP-labeled goat anti-human IgG antibody. The color was developed by dispensing 100 μL of TMB substrate, and then stopped by 100 μL of 2N HCl. The absorbance was read at 450 nm and 540 nm using a microplate spectrophotometer.

Experiment [4] concerns the target T4, Human CTLA-4 extracellular domain, His tag (human, UniProt P16410 36-161).
T4 construct: extracellular domain; also called hCTLA-4.ECD.His; not shown: 6xhis tag at C-terminus
T4 sequence (looked up): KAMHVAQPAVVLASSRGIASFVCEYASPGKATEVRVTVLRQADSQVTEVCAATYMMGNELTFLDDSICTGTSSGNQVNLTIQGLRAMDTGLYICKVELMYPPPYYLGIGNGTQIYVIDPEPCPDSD
The experiment is described as above. The procedure: as §1

The target of experiment [5] is T5, Human ICOS extracellular domain, mFc tag (human, UniProt Q9Y6W8 21-140).
T5 construct: extracellular domain; also called hICOS.ECD.mFc; not shown: mouse Fc tag at C-terminus
T5 sequence (looked up): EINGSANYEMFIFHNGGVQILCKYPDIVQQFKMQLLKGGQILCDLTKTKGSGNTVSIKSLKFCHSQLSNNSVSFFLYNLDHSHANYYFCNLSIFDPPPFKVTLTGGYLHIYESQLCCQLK
The experiment is described as above. The procedure:
as §1

In experiment [6] the target is T6, Human BTLA extracellular domain, His (human, UniProt Q7Z6A9 31-157).
T6 construct: extracellular domain; Bought; also called hBTLA.ECD.His; not shown: His tag
T6 sequence (looked up): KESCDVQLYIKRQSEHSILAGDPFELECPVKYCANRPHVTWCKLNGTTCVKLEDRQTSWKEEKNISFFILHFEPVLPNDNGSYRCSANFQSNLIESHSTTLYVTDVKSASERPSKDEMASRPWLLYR
The description is as above. The procedure:
as §1

T1 sequence (Q15116 25-288): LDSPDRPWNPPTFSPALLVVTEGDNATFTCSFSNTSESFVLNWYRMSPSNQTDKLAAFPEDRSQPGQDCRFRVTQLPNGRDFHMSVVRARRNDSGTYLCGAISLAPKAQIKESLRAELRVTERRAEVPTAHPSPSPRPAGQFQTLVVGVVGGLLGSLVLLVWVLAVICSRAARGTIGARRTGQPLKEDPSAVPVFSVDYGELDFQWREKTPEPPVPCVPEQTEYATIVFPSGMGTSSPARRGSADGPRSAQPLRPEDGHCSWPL
T3 sequence (P10747 19-152): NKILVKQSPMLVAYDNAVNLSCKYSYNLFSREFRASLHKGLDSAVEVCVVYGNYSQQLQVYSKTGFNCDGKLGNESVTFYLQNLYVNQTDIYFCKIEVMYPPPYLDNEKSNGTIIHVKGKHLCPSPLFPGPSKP

B1: W3056-AP17R1-2H2-FC(IgG4.SP) (Fc fusion)
chain: QVQLVESGGGLVQPGGSLRLSCAASDSIDSLVNMGWYRQAPGKQRELVALIANYITHYADFVKGRFTISRDAAKNTVNLQMSSLKPEDTAVYYCYARNIIVDYWGQGTQVTVSS
notes: VHH fused to Fc of human IgG4 S228P; also called W3056 lead parental antibody (VHH-Fc(hIgG4) fusion); not shown: Fc of human IgG4 (hIgG4.S228P)
For the molecule B1, in experiment [1], the midpoint of the response, the EC50, lay at 1.87 nM. In addition, the IC50 in the experiment with Mouse PD-1 on 293F cells turned out to be 22.1 nM; in experiment [2] it was 1 nM. Moreover, the binding result in experiment [3], in experiment [4], in experiment [5] and in experiment [6] was “no binding (tested: 100 nM)” each time.

B2: W3056-AP17R1-2H2-Z1-R1-14A1-FC(IgG4.SP) (Fc fusion)
chain: B1 chain with L11V, N53T, A72N, A73S, V77L, N78Y, S82N, K85R, P86A, Q109L
notes: also called W3056 lead antibody (VHH-Fc(hIgG4) fusion); not shown: Fc of human IgG4 (hIgG4.S228P)
B2 yielded an EC50 in experiment [1] of 0.612 nM. In addition, the IC50 with Mouse PD-1 on 293F cells was determined as 10.2 nM; in experiment [2], 0.655 nM. For the same molecule, the binding result in experiment [3], in experiment [4], in experiment [5] and in experiment [6] was “no binding (tested: 100 nM)” each time.

As a reminder, the EC50 is the concentration that produces a half-maximal response. As a reminder, the IC50 is the concentration needed to halve the response being measured. Lower therefore signals inhibition by little substance.

The values above are taken from US20240301067A1 (WUXI BIOLOGICS IRELAND, published 2024).
